The record followed here is IntAct's records for PubMed 19706414.

The assay concerns the target casp8_human CASP8 (UniProt Q14790).

Osteopontin (Homo sapiens), P10451-1 D135A;D157A, sequence (P10451 whole entry D135A/D157A): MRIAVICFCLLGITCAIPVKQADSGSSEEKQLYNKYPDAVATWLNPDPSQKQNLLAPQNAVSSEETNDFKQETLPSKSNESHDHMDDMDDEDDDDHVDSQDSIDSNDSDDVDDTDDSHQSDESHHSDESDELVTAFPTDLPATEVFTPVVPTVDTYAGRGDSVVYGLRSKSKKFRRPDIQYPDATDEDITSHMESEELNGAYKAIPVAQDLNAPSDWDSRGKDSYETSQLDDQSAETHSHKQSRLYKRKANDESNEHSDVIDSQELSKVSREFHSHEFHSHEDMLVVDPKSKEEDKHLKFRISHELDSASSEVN
casp8_human CASP8, sequence (Q14790 whole entry): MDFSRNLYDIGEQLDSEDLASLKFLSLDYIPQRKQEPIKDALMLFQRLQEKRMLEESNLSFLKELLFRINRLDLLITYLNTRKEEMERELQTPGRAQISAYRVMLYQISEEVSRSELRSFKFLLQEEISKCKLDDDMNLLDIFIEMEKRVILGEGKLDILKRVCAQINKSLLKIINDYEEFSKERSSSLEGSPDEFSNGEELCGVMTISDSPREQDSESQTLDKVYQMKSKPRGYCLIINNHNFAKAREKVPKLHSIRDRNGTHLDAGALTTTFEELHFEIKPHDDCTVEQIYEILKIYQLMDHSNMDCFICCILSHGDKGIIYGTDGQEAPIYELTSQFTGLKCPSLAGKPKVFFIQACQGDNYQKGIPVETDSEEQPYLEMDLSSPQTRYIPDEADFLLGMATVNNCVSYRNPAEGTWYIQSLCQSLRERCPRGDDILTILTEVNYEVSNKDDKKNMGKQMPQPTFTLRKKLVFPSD

Turning to “Osteopontin (Homo sapiens), P10451-1 D135A;D157A”, the “effect of a mutation on the interaction” value is given as “disrupting interaction”.
